Assay results: publication PMC12273708, “Biochemical and Biophysical Divergences between Two L‑Asparaginase II Variants: Potential for Using EcA2-K12 as a Biosimilar” (Biochemistry, 2025)

What was measured:
[1] = target: L-asparaginase II from the K12 strain (EcA2-K12) (Escherichia coli, strain K12 (strain printed; the species name is lost from the text shown)); assay: SEC; analytical size exclusion chromatography, TSKgel G2000SWXL, 50 uM enzyme in 25 mM sodium phosphate pH 7.4, 100 mM sodium chloride, 0.35 mL/min; hydrodynamic radius against globular standards
[2] = as above
[3] = target: T1, EcA2-K12 (L-asparaginase II, K12 strain) (Escherichia coli, UniProt P00805); assay: intrinsic tryptophan fluorescence titration (spectral center of mass), Hill fit; format: binding
T1 construct: gene ansB; mature protein (precursor residues 23 to 348) behind a pelB leader, pET25b, secreted from E. coli BL21(DE3), purified from medium; no tag mentioned; homotetramer with four active sites
T1 sequence (P00805 23-348): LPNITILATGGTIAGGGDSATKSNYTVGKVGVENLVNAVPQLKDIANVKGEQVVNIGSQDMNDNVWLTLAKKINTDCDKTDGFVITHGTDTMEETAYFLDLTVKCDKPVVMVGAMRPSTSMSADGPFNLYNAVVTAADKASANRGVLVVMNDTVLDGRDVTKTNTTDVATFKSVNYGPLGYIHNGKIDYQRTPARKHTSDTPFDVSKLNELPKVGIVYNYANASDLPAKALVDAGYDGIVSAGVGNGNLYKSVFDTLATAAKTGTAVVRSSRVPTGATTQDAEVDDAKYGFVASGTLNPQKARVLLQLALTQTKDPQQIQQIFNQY

[4] = target: T2, EcA2-4M (L-asparaginase II, BL21(DE3) / Elspar sequence) (Escherichia coli, UniProt P00805, N86D/S274T/T285N/V49A); assay: as above; format: binding
T2 construct: gene ansB; mature protein (precursor residues 23 to 348) behind a pelB leader, pET25b, secreted from E. coli BL21(DE3), purified from medium; no tag mentioned; homotetramer with four active sites
T2 sequence (P00805 23-348 V49A/N86D/S274T/T285N): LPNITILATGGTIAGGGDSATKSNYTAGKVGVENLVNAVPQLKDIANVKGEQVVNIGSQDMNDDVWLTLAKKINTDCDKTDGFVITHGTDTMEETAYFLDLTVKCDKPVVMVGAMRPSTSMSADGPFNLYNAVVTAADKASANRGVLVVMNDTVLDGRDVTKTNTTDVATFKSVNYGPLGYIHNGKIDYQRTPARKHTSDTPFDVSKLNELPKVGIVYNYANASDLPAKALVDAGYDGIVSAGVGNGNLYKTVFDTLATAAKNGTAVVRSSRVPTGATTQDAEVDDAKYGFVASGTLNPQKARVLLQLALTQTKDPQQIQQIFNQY

[5] = target: L-asparaginase II variant EcA2-4M (sequence of the BL21(DE3) strain and of Elspar) (Escherichia coli, strain BL21(DE3) (strain printed; the species name is lost from the text shown)); assay: SEC; analytical size exclusion chromatography, TSKgel G2000SWXL, 50 uM enzyme in 25 mM sodium phosphate pH 7.4, 100 mM sodium chloride, 0.35 mL/min; hydrodynamic radius against globular standards
[6] = substrate: NC(=O)CC[C@H](N)C(=O)O; assay: 1D 1H NMR progress curves, Lambert W fit of integrated Michaelis-Menten equation; format: biochemical, Escherichia coli; conditions: 640 μM L-Gln, 2.5 μM enzyme, 100 mM sodium phosphate pH 8.0, 10% D2O, 25 °C
Text: (§1) 1D 1H NMR progress curves, Lambert W fit of integrated Michaelis-Menten equation on EcA2-K12 (L-asparaginase II, K12 strain)

[7] = substrate: NC(=O)C[C@H](N)C(=O)O; assay: as above; format: biochemical, Escherichia coli; conditions: 160 μM L-Asn, 2.1 nM enzyme, 100 mM sodium phosphate pH 8.0, 10% D2O, 25 °C
Text: as §1

[8] = substrate: NC(=O)CC[C@H](N)C(=O)O; assay: as above; format: biochemical, Escherichia coli; conditions: 640 μM L-Gln, 1.3 μM enzyme, 100 mM sodium phosphate pH 8.0, 10% D2O, 25 °C
Text: (§2) 1D 1H NMR progress curves, Lambert W fit of integrated Michaelis-Menten equation on EcA2-4M (L-asparaginase II, BL21(DE3) / Elspar sequence)

[9] = substrate: NC(=O)C[C@H](N)C(=O)O; assay: as above; format: biochemical, Escherichia coli; conditions: 160 μM L-Asn, 1.0 nM enzyme, 100 mM sodium phosphate pH 8.0, 10% D2O, 25 °C
Text: as §2

Which stoichiometry N [1] does the source give for “L-asparaginase II from the K12 strain (EcA2-K12) (enzyme)” here?
Its stoichiometry N is 4.

With “L-asparaginase II variant EcA2-4M (sequence of the BL21(DE3) strain and of Elspar)” as the molecule, how does the “prepeak percentage of the total area (species of larger hydrodynamic radii)” value [2] read?
Its value is “approximately 5%”.

Which Kd [3] does the source give for `N[C@@H](CC(=O)O)C(=O)O` [L-Asp] here?
Its Kd is 211 ± 52 µM.

What about the Kd [4] of the same molecule?
The Kd was 66 ± 14 µM.

For “L-asparaginase II variant EcA2-4M (sequence of the BL21(DE3) strain and of Elspar) (enzyme)”, which stoichiometry N [5] is on record?
Its stoichiometry N is 4.

Which “prepeak percentage of the total area (species of larger hydrodynamic radii)” value [2] does the source give for “L-asparaginase II from the K12 strain (EcA2-K12)” here?
The value was 13% for EcA2-K12.

B1: EcA2-K12 (L-asparaginase II, K12 strain) (Escherichia coli K-12) (protein)
chain: LPNITILATGGTIAGGGDSATKSNYTVGKVGVENLVNAVPQLKDIANVKGEQVVNIGSQDMNDNVWLTLAKKINTDCDKTDGFVITHGTDTMEETAYFLDLTVKCDKPVVMVGAMRPSTSMSADGPFNLYNAVVTAADKASANRGVLVVMNDTVLDGRDVTKTNTTDVATFKSVNYGPLGYIHNGKIDYQRTPARKHTSDTPFDVSKLNELPKVGIVYNYANASDLPAKALVDAGYDGIVSAGVGNGNLYKSVFDTLATAAKTGTAVVRSSRVPTGATTQDAEVDDAKYGFVASGTLNPQKARVLLQLALTQTKDPQQIQQIFNQY
notes: mature protein (precursor residues 23 to 348) behind a pelB leader, pET25b, secreted from E. coli BL21(DE3), purified from medium; no tag mentioned; homotetramer with four active sites
With B1 as the molecule, how does the Km [6] read?
Its Km is 2301 ± 75 µM.

What about the Km [7] of the same molecule?
Its Km is 8 ± 3 µM.

B2: EcA2-4M (L-asparaginase II, BL21(DE3) / Elspar sequence) (Escherichia coli K-12; N86D/S274T/T285N/V49A) (protein)
chain: LPNITILATGGTIAGGGDSATKSNYTAGKVGVENLVNAVPQLKDIANVKGEQVVNIGSQDMNDDVWLTLAKKINTDCDKTDGFVITHGTDTMEETAYFLDLTVKCDKPVVMVGAMRPSTSMSADGPFNLYNAVVTAADKASANRGVLVVMNDTVLDGRDVTKTNTTDVATFKSVNYGPLGYIHNGKIDYQRTPARKHTSDTPFDVSKLNELPKVGIVYNYANASDLPAKALVDAGYDGIVSAGVGNGNLYKTVFDTLATAAKNGTAVVRSSRVPTGATTQDAEVDDAKYGFVASGTLNPQKARVLLQLALTQTKDPQQIQQIFNQY
notes: as for B1
What does the source list for B2?
Km [8]: 3111 ± 159 µM; Km [9]: 11 ± 5 µM
